The results in this text go back to publication PMC9772109 (Immunity, 2022).

This experiment has as its target H1 HA (recombinant HA of Figure 4E) (Influenza A virus, H1 subtype; strain …, UniProt A0A1J0CXU0). Description: BLI. A general note: In BLI a coated tip is dipped into the sample, and binding shifts an interference pattern.

B1: 789-203-3C12 AA variant mAb (Cys33Ala/Cys52Ala heavy chain with the 789-203-3C12 light chain), IgG (antibody, V domains shown)
VH: QVQLQESGPGLVKPSEILSLTCAVSGGSFSSYAWGWIRQPPGKGLEWIGSIAGSGGSNYLNPSLKSRVTLSVDTSKNQFSLILNSVTAADTAVYYCAREGITIFGVVIPRVLDSWGQGAVVTVSS
VL: DIQMTQSPSSLSASVGDTVTITCRASQSISSWLAWYQQKPGKAPNLLIYRASTLQSGVPSRFSGSGSGTDFTLTISSLQSEDFATYFCQQSTSSPFTFGPGTKLDIK
B1: the binding result was “binds”.
